Test results taken from publication PMC5318909, “Nucleobindin 1 binds to multiple types of pre-fibrillar amyloid and inhibits fibrillization” (Scientific Reports, 2017).

Assays:
[1] = molecular target: Aβ42 synthetic peptide (UniProt P05067 672-713); assay: cell-based or functional assay
[2] = molecular target: the molecule itself; assay: atomic force microscopy; mtNUCB1 alone plated on freshly cleaved mica, imaged in air in tapping mode; volume analysis of particles

B1: Ca2+-free mutant variant of soluble nucleobindin 1 (mtNUCB1) (natural protein, human, UniProt Q02818 31-461, looked up)
chain: RGAPNKEETPATESPDTGLYYHRYLQEVIDVLETDGHFREKLQAANAEDIKSGKLSRELDFVSHHVRTKLDELKRQEVSRLRMLLKAKMDAEQDPNVQVDHLNLLKQFEHLDPQNQHTFEARDLELLIQTATRDLAQYDAAHHEEFKRYEMLKEHERRRYLESLGEEQRKEAERKLEEQQRRHREHPKVNVPGSQAQLKEVWEELDGLDPNRFNPKTFFILHKINSDGVLDEQALEALFTKELEKVYDPKNEEDDMREMEEERLRMREHVMKNVKTNQDRLVTLEAFLASTQRKEFGDTGEGWETVEMHPAYTEEELRRFEEELAAREAELNAKAQRLSQETEALGRSQGRLEAQKRELQQAVLHMEQRKQQQQQQQGHKAPAAHPEGQLKFHPDTDDVPVPAPAGDQKEVDTSEKKLLERLPEVEVPQHL
notes: His tag cleaved with PreScission protease; also called CLABP; source: E. coli BL21 (DE3), purified (Ni-NTA, Superdex200 SEC); not shown: His6, N-terminal, cleaved
[1]
  MTT viability of PC12 cells treated for 24 h with 100 nM Aβ42 and increasing doses of mtNUCB1: IC50 of protection: 1400 nM
[2]
  stoichiometry N: 2
